The record followed here is paper PMC11940719, “Assembly Formation of P65 Protein, Featured by an Intrinsically Disordered Region Involved in Gliding Machinery of Mycoplasma pneumoniae” (Biomolecules, 2025).

The term stoichiometry N denotes a count of units in the complex or per binding partner.

Where two headings read alike, the source gives them in different places.

For data set [1], the target named is P65 fragment C (tryptic fragment of region II) (Mycoplasma pneumoniae (strain M129-B7)). In words: AUC; sedimentation velocity in 150 mM NaCl, 20 mM Tris-HCl (pH 8.0); absorbance scans at 10-minute intervals; C(s) distribution (SEDFIT).
Data set [2] concerns the molecule itself. The experiment in a line: negative staining electron microscopy; proteins at 40 µg/mL stained with 2% uranyl acetate on carbon-coated grids, 80 kV.
Data set [3] deals with the molecule itself. In words: AUC; sedimentation velocity in 150 mM NaCl, 20 mM Tris-HCl (pH 8.0); absorbance scans at 10-minute intervals; C(s) distribution (SEDFIT).
Data set [4] concerns the molecule itself. The description is as above. This is another data set of the same source.

“P65 fragment C (tryptic fragment of region II) (domain or fragment)”: the stoichiometry N in data set [1] came to 3.

B1: P65 fragment B (residues 185-405) (domain or fragment)
chain: SDLAYEVTPQEQAAEQELFSEPETKVIREIHEFPFEKIRSYFQTDFDSYNSRLTQLKDKLDNAIFSMRKAIDTVKENSANLQIMKQNFERQLKEQQTQRLTSNTDAEKIGAKINQLEERMQRLSRTMESVEWTKKEPRQEQFDPRFVDPRNFNNYVNNTDTMMSMFEKVLMMNLLRSTTPVQPPVQYFTPQPLTASPRPVYEEPISASFRRRGYRGDEFYE
notes: P65 protein of Mycoplasma pneumoniae strain M129-B7 (AGC04228), residues 185-405 by mass spectrometry (26.3 kDa; theoretical 26,279 Da); peptide mass fingerprinting covers at least residues 212-405; source: the digest containing fragment B was used
In the case of B1, the binding result in data set [2] was “binds”.

B2: full-length P65 protein of Mycoplasma pneumoniae (natural protein)
chain: MDINKPGWNQSDQQATAYDPNQQQYYGDGSTYYDPDQAVDPNQAYYPDPNTYPDAAAYYGYGQDGQAYPQDYAQDPNQAYYADPNAYQDPNAYTDPNAYVDPNAYQDPNAYVDPNNYTDPNAYYGYGQDGQAYPQDYAQDPNQAYYADPNAYQDPNAYTDPYYVTSTDPNAYYGQVDNVPALEASDLAYEVTPQEQAAEQELFSEPETKVIREIHEFPFEKIRSYFQTDFDSYNSRLTQLKDKLDNAIFSMRKAIDTVKENSANLQIMKQNFERQLKEQQTQRLTSNTDAEKIGAKINQLEERMQRLSRTMESVEWTKKEPRQEQFDPRFVDPRNFNNYVNNTDTMMSMFEKVLMMNLLRSTTPVQPPVQYFTPQPLTASPRPVYEEPISASFRRRGYRGDEFYE
notes: P65 protein of Mycoplasma pneumoniae strain M129-B7, p65 gene (AGC04228), codon-optimised, in pET-15b (NdeI, BamHI); 405 residues; Forms a multimer of more than 60 subunits (about 3.10 x 10^6 Da) by analytical ultracentrifugation; The printed mass of 49,203 Da probably includes the tag peptide; also called Whole
B2: the “stoichiometry N” value in data set [3] was more than 60.

B3: P65 fragment D (regions I and II, residues 1-320) (domain or fragment)
chain: MDINKPGWNQSDQQATAYDPNQQQYYGDGSTYYDPDQAVDPNQAYYPDPNTYPDAAAYYGYGQDGQAYPQDYAQDPNQAYYADPNAYQDPNAYTDPNAYVDPNAYQDPNAYVDPNNYTDPNAYYGYGQDGQAYPQDYAQDPNQAYYADPNAYQDPNAYTDPYYVTSTDPNAYYGQVDNVPALEASDLAYEVTPQEQAAEQELFSEPETKVIREIHEFPFEKIRSYFQTDFDSYNSRLTQLKDKLDNAIFSMRKAIDTVKENSANLQIMKQNFERQLKEQQTQRLTSNTDAEKIGAKINQLEERMQRLSRTMESVEWTKKE
notes: P65 protein of Mycoplasma pneumoniae strain M129-B7 (AGC04228), residues 1-320 (regions I and II); No cleavage of the tag is described; The printed theoretical mass of 39,080 Da probably includes the tag peptide; source: E. coli BL21(DE3), soluble fraction, purified (HisTrap HP, size exclusion chromatography)
B3: the “stoichiometry N” value in data set [4] came to 3.
